In publication doi:10.1101/2024.07.22.604500:

What was measured:
[1] = biological target: H1.0–K63-Ub2 chromatosome (CH2) (UniProt P07305)
[2] = biological target: H1.0–K63-Ub3 chromatosome (CH3) (UniProt P07305)
[3] = biological target: H1.0–Ub chromatosome (CH1) (UniProt P07305)
[4] = biological target: unmodified H1.0-containing chromatosome (CH0) (UniProt P07305)

- H2A conversion in the in vitro ubiquitylation assay, 5 and 10 min (13% and 25%) [1]: 25%
- H2A conversion in the in vitro ubiquitylation assay, 5 and 10 min (28% and 48%) [2]: 48%
- H2A conversion in the in vitro ubiquitylation assay, 5 and 10 min (2% and 3%) [3]: 3%
- H2A conversion in the in vitro ubiquitylation assay, 5 and 10 min (3% and 5%) [4]: 5%
Substance: RNF168^1–193 (from UniProt Q8IYW5 1-193) (domain or fragment)
